This experiment deals with T1, DEC-205 receptor on DC 2.4 cells (mouse) (mouse, UniProt Q60767 28-1723).
T1 construct: whole, on cells; also called CD205
In words: competition cell ELISA on DC 2.4 cells; competitor bfFp (WET7) pre-bound. For orientation: ELISA stands for enzyme-linked immunosorbent assay.

From US20100129383A1 (GOVERNORS OF THE UNIVERSITY OF ALBERTA, published 2010) come the findings set out here.

B1: HB290 mAb (rat anti-mouse DEC-205 monoclonal antibody) (antibody, V domains shown)
VH: EVKLVESGGGLVQPGGSLRLSCAASGFTFNDFYMNWIRQPPGQAPEWLGVIRNKGNGYTTEVNTSVKGRFTISRDNTQNILYLQMNSLRAEDTAIYYCARGGPYYYSGDDAPYWGQGVMVTVSS
VL: DIQMTQSPSFLSTSLGNSITITCHASQNIKGWLAWYQQKSGNAPQLLIYKASSLQSGVPSRFSGSGSGTDYIFTISNLQPEDIATYYCQHYQSFPWTFGGGTKLELK
notes: Full-length rat mAb from the ATCC hybridoma HB290; also called full-length HB290 mAb; NLDC-145
Consider B1, for which the binding result is given as “binds”.
